Measured values as given in US20210033615.

Target: T1, F-box protein 28 (FBXO28)
T1 chain: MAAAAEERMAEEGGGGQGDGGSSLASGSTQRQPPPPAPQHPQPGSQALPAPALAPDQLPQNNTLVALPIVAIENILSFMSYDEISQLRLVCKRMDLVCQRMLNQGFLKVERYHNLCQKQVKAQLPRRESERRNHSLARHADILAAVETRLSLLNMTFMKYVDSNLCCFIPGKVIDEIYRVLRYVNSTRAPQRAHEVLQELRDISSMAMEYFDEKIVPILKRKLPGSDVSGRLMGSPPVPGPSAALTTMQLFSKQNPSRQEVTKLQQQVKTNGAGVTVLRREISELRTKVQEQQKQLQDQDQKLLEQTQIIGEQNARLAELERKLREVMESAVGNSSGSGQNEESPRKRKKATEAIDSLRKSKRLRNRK

B1: 6-phosphofructo-2-kinase/fructose-2,6-biphosphatase 4 (PFKFB4) (protein)
chain: MASPRELTQNPLKKIWMPYSNGRPALHACQRGVCMTNCPTLIVMVGLPARGKTYISKKLTRYLNWIGVPTREFNVGQYRRDVVKTYKSFEFFLPDNEEGLKIRKQCALAALRDVRRFLSEEGGHVAVFDATNTTRERRATIFNFGEQNGYKTFFVESICVDPEVIAANIVQVKLGSPDYVNRDSDEATEDFMRRIECYENSYESLDEDLDRDLSYIKIMDVGQSYVVNRVADHIQSRIVYYLMNIHVTPRSIYLCRHGESELNLKGRIGGDPGLSPRGREFAKSLAQFISDQNIKDLKVWTSQMKRTIQTAEALGVPYEQWKVLNEIDAGVCEEMTYEEIQDNYPLEFALRDQDKYRYRYPKGESYEDLVQRLEPVIMELERQENVLVICHQAVMRCLLAYFLDKAAEQLPYLKCPLHTVLKLTPVAYGCKVESIFLNVAAVNTHRDRPQNVDISRPPEEALVTVPAHQ
- HIF1a protein level (Western blot) after knockdown in GSCs: silencing of both FBXO28 and PFKFB4 in the GSCs rescued the level of HIF1a
- ubiquitylation of HIF1a (ubiquitin immunoblot on immunoprecipitated HIF1a upon MG132 treatment): the ubiquitylation of HIF1a is decreased in cells overexpressing PFKFB4
